# Measured values published in patent publication US20240317841A1.
# Numbering of substitutions follows the chain as printed.
# B1: FHF11 (antibody, V domains shown)
# VH: QVQLQQSGPGLVKPSQTLSVTCGISGDSVSSHSAAWNWIRQSPSRGLEWLGRTYYRSKWYNDYAVSVKSRITINPDTSKNQFSLQLISVTPEDTAVYYCARVGAMTFGLLTGGMDVWGQGTTVTVSS
# VL: EIVLTQSPGTQSLSPGERATLSCRASQSLSRSYLAWYQQRPGKPPRLLIYGASSRATGIPDRFSGSGSGTDFSLTISSLEPEDSAMYFCQYYGDSPLFSFGPGTKVDIK
# B2: FHF11v3 (antibody, V domains shown)
# VH: B1 VH with H32Y
# VL: B1 VL
# B3: FHF12 (antibody, V domains shown)
# VH: B1 VH with G23A, I87V, M105A, L109I
# VL: B1 VL with E17D
# B4: FHF11v9 (antibody, V domains shown)
# VH: B1 VH with H32Y, K58G
# VL: B1 VL
# B5: FHF11v6 (antibody, V domains shown)
# VH: B1 VH with K58G
# VL: B1 VL
# Assays:
# [1] = biological target: H1-CAL (Influenza A virus); experiment: FACS, HA on mammalian cells; 2nd only 7.4
# [2] = biological target: HA from an H1N1 Swine Eurasian avian-like (EA) strain, A/Swine/Jiangsu/J004/2018 (influenza A virus (H1N1, A/Swine/Jiangsu/J004/2018)); experiment: flow cytometry, HA on mammalian cells; mock 7.62 [Cont'd]
# [3] = biological target: H17 (Influenza A virus); experiment: FACS, HA on mammalian cells; 2nd only 4.1
# [4] = biological target: H5 hemagglutinin (influenza A virus); experiment: BLI, HA-5
# [5] = biological target: H7 hemagglutinin (influenza A virus); experiment: BLI, HA-7; printed as kdis
# [6] = biological target: H12 (Influenza A virus); experiment: FACS, HA on mammalian cells; 2nd only 9.7
# [7] = biological target: H11 (Influenza A virus); experiment: FACS, HA on mammalian cells; 2nd only 8.1
# [8] = biological target: H13 (Influenza A virus); experiment: flow cytometry, HA on mammalian cells; mock cells 0.96
# [9] = biological target: H4 (Influenza A virus); experiment: as above
# [10] = biological target: H8 (Influenza A virus); experiment: as above
# [11] = biological target: H10 (Influenza A virus); experiment: as above
# [12] = biological target: H12 (Influenza A virus); experiment: as above
# [13] = biological target: H11 (Influenza A virus); experiment: as above
# [14] = biological target: H5 hemagglutinin (influenza A virus); experiment: BLI, HA-5; printed as kdis
# [15] = biological target: HA from an H1N1 Swine Eurasian avian-like (EA) strain, A/Swine/Jiangsu/J004/2018 (influenza A virus (H1N1, A/Swine/Jiangsu/J004/2018)); experiment: flow cytometry, HA on mammalian cells; mock 4.41
# [16] = biological target: H16 (Influenza A virus); experiment: FACS, HA on mammalian cells; 2nd only 6.9
# [17] = biological target: HA from an H1N1 Swine Eurasian avian-like (EA) strain, A/Swine/Jiangsu/J004/2018 (influenza A virus (H1N1, A/Swine/Jiangsu/J004/2018)); experiment: flow cytometry, HA on mammalian cells; mock 4.30
# [18] = biological target: HA from an H1N1 Swine Eurasian avian-like (EA) strain, A/Swine/Jiangsu/J004/2018 (influenza A virus (H1N1, A/Swine/Jiangsu/J004/2018)); experiment: flow cytometry, HA on mammalian cells; mock 3.31 [Cont'd]
# [19] = biological target: H14 (Influenza A virus); experiment: FACS, HA on mammalian cells; 2nd only 12
# [20] = biological target: H13 (Influenza A virus); experiment: FACS, HA on mammalian cells; 2nd only 12
# [21] = biological target: H15 (Influenza A virus); experiment: FACS, HA on mammalian cells; 2nd only 12
# [22] = biological target: H8 (Influenza A virus); experiment: FACS, HA on mammalian cells; 2nd only 7.9
# [23] = biological target: H1-SC (Influenza A virus); experiment: FACS, HA on mammalian cells; 2nd only 7.5
# [24] = biological target: H18 (Influenza A virus); experiment: FACS, HA on mammalian cells; 2nd only 5.5
# [25] = biological target: H4 (Influenza A virus); experiment: FACS, HA on mammalian cells; 2nd only 11
# [26] = biological target: H10 (Influenza A virus); experiment: FACS, HA on mammalian cells; 2nd only 8.7
# [27] = biological target: H18 (Influenza A virus); experiment: flow cytometry, HA on mammalian cells; mock cells 0.96 [cont'd]
# [28] = biological target: H17 (Influenza A virus); experiment: as above
# [29] = biological target: H14 (Influenza A virus); experiment: as above
# [30] = biological target: H16 (Influenza A virus); experiment: as above
# [31] = biological target: H15 (Influenza A virus); experiment: as above
# [32] = biological target: H7 hemagglutinin (influenza A virus); experiment: BLI, HA-7
# [33] = biological target: H18 (Influenza A virus); experiment: flow cytometry, HA on mammalian cells; mock cells 1.12 [cont'd]
# [34] = biological target: H17 (Influenza A virus); experiment: as above
# [35] = biological target: H14 (Influenza A virus); experiment: as above
# [36] = biological target: H16 (Influenza A virus); experiment: as above
# [37] = biological target: H15 (Influenza A virus); experiment: as above
# [38] = biological target: H13 (Influenza A virus); experiment: flow cytometry, HA on mammalian cells; mock cells 1.12
# [39] = biological target: H4 (Influenza A virus); experiment: as above
# [40] = biological target: H8 (Influenza A virus); experiment: as above
# [41] = biological target: H10 (Influenza A virus); experiment: as above
# [42] = biological target: H12 (Influenza A virus); experiment: as above
# [43] = biological target: H11 (Influenza A virus); experiment: as above
# [44] = biological target: H5 hemagglutinin (influenza A virus); experiment: BLI, HA-5; given as kdis
# [45] = biological target: H7 hemagglutinin (influenza A virus); experiment: BLI, HA-7 [Cont'd]
# [46] = biological target: H5 hemagglutinin (influenza A virus); experiment: BLI, HA-5 [Cont'd]
# [47] = biological target: H7 hemagglutinin (influenza A virus); experiment: BLI, HA-7; given as kdis
Binder,% cells binding to HA [1] [%],Alexa 647-A+ (percent of cells) at 0.4 µg/ml [2],% cells binding to HA [3] [%],Kd [4] [nM],kon [4] [M⁻¹ s⁻¹],koff [5] [s⁻¹],% cells binding to HA [6] [%],% cells binding to HA [7] [%],koff [14] [s⁻¹],Alexa 647-A+ (percent of cells) at 10 µg/ml [15],% cells binding to HA [16] [%],Alexa 647-A+ (percent of cells) at 2 µg/ml [18],% cells binding to HA [19] [%],% cells binding to HA [20] [%],% cells binding to HA [21] [%],% cells binding to HA [22] [%],% cells binding to HA [23] [%],% cells binding to HA [24] [%],% cells binding to HA [25] [%],% cells binding to HA [26] [%],also measured
B1,88,84.5,82,< 0.001,19900,4.95e-05,86,62,< 1e-07,90.7,20,89.2,79,79,76,80,83,80,54,82,percent of cells in the gate [8]: 75.8; percent of cells in the gate [9]: 40.6; percent of cells in the gate [10]: 89.2; percent of cells in the gate [11]: 89.7; percent of cells in the gate [12]: 79.1; percent of cells in the gate [13]: 42.7; Alexa 647-A+ (percent of cells) at 50 µg/ml [17]: 90.7; percent of cells in the gate [27]: 94.3; percent of cells in the gate [28]: 98.2; percent of cells in the gate [29]: 75.2; percent of cells in the gate [30]: 23.2; percent of cells in the gate [31]: 75.6; Kd [32]: 2.03 nM; kon [32]: 24400 M⁻¹ s⁻¹
B2,84,,82,< 0.001,16400,0.000118,85,59,< 1e-07,,22,,70,79,66,78,82,79,48,77,Kd [32]: 5.11 nM; kon [32]: 23000 M⁻¹ s⁻¹
B3,,85.1,,,,,,,,90.6,,90.5,,,,,,,,,percent of cells in the gate [33]: 94.8; percent of cells in the gate [34]: 98; percent of cells in the gate [35]: 80.4; percent of cells in the gate [36]: 25.7; percent of cells in the gate [37]: 77.2; percent of cells in the gate [38]: 79.2; percent of cells in the gate [39]: 72.2; percent of cells in the gate [40]: 89.6; percent of cells in the gate [41]: 88.5; percent of cells in the gate [42]: 75.3; percent of cells in the gate [43]: 37.8
B4,85,,82,,,,86,59,,,13,,70,75,63,78,80,78,47,79,koff [44]: < 1e-07 s⁻¹; Kd [45]: 9.76 nM; kon [45]: 19800 M⁻¹ s⁻¹; Kd [46]: < 0.001 nM; kon [46]: 16200 M⁻¹ s⁻¹; koff [47]: 0.000193 s⁻¹
B5,85,,82,,,,87,59,,,11,,70,69,75,77,82,79,49,82,koff [44]: < 1e-07 s⁻¹; Kd [45]: 10.4 nM; kon [45]: 16400 M⁻¹ s⁻¹; Kd [46]: < 0.001 nM; kon [46]: 13600 M⁻¹ s⁻¹; koff [47]: 0.000169 s⁻¹
